This assay concerns the target MAGEB2 peptide … / HLA-A*02:01 / b2m (human). The assay is described as follows: FACS.

B1: MA 03-E11 AS CC (G2B) (antibody, V domains shown)
VH: EVQLLESGGGLVQPGGSLRLSCAASGFTFSSHAMSWVRQAPGKCLEWVSAISGSGGGTYNAASVKGRFTISRDNSKNTLYLQMNSLRAEDTAAYYCVTGKGVHLGFDYWGQGTLVTVSS
VL: SYVLTQPPSVSVAPGQTARITCGGNNIGSKSVHWYQQKPGQAPVMVVYDDNDRPSGIPERFSGSNSGNTATLTISRVEAGDEADYYCQVWDYYSNRAVFGCGTKLTVL
B1: binding was characterised by a dissociation constant (Kd) of 4.2 nM.

B2: MA 03-G11_AS CC (O4R) (antibody, V domains shown)
VH: EVQLLESGGGLVKPGGSLRLSCAASGFTFSSHAMSWVRQAPGKCLEWVSAISGSGGGTYYAASVKGRFTISRDNSKNTLYLQMNSLRAEDTAVYYCATGKGVHLNFDYWGQGTLVTVSS
VL: SYVLTQPPSVSVAPGQTARITCGGNNIGSKSVHWYQQKPGQAPVLVVYDDNDRPSGIPERFSGSNFGNTATLIISRVEAGDEADYYCQVWDYLLPGQVFGCGTKLTVL
The molecule B2 gave a Kd of 1.3 nM.

B3: MA 03-H12_AS CC (K5A) (antibody, V domains shown)
VH: EVQLLESGGGLVQPGGSLRLSCAASGFTFSSHAMSWVRQAPGKCLEWVSAISGSGGGTYNAASVKGRFTISRDNSKNTLYLQMNSLRAEDTAAYYCVTGKGVHLGFDYWGQGTLVTVSS
VL: SYVLTQPPSVSVAPGQTARITCGGNNIGSKSVHWYQQKPGQAPVMVVYDDNDRPSGIPERFSGSNFGNTATLTISRVEAGDEADYYCQVWDYVTPRWVFGCGTKLTVL
Regarding B3, binding was characterised by a dissociation constant (Kd) of 1.1 nM.

B4: MA 03-D12_AS CC (L6A) (antibody, V domains shown)
VH: EVQLLESGGGLVQPGGSLRLSCAASGFTFSSHAMSWVRQAPGKCLEWVSAISGSGGGTYYAASVKARFTISRDNSKNTLYLQMNSLRAEDTAVYYCATGKGVHLGFDYWGQGTLVTVSS
VL: SYVLTQPPSVSVAPGQTARITCGGNNIGSKSVHWYQQKPGQAPVMVVYDDNDRPSGIPERFSGSNSGNTATLTISRVEAGDEADYYCQVWDYLRQQQVFGCGTKLTVL
As to B4, the Kd came out at 0.7 nM.

B5: MA 03-C7_AS CC (G2H) (antibody, V domains shown)
VH: EVQLLESGGGLVQPGGSLRLSCAASGFTFSSHAMSWVRQAPGKCLEWVSAISGSGGGTYYAASVKGRFTISRDNSKNTLYLQMNSLRAEDTAVYYCATGKGVHLGFDYWGQGTLVTVSS
VL: SYVLTQPPSVSVAPGQTARITCGGNNIGSKSVHWYQQKPGQAPVMVVYDDNDRPSGIPERFSGSNSGNTATLTISRVEAGDEADYYCQVWDYERPAMVFGCGTKLTVL
As to B5, the affinity, expressed as Kd, was 1.5 nM.

B6: MA 09-H7 CC (T3S) (antibody, V domains shown)
VH: QITLKESGPALVKPTQTLTLTCTFSGFSFTTHKMGVDWIRQPPGKCLEWLALIYWNDDKRYSPSLQSRLTITKDTSKNQVVLTMTNMDPVDTATYYCAYRRYNWNYENWFDPWGQGTLVTVSS
VL: DIQMTQSPSSLSASVGDRVTITCQASQDISNYLNWYQQKPGKAPKLLIYAASSLQSGVPSRFSGSGSGTDFTLTISSLQPEDFATYYCQQSYFPVVEFGCGTKVEIK
Molecule B6 displayed a Kd of 0.8 nM.

B7: MA 86-A4-N-F5 CC (M4H) (antibody, V domains shown)
VH: QVQLVESGGGVVQPGRSLRLSCAASGFTFSTYGMHWVRQAPGKCLEWVAVISYDAETVKYAESVKGRFTISRDNSKNTLYLQMNSLRAEDTAVYYCARGQLLTGYWGQGTLVTVSS
VL: DIQMTQSPSSLSASVGDRVTITCRASQGISNYLAWYQQKPGKVPKLLIYAASTLQSGVPSRFSGSGSGTDFTLTISSLQPEDVATYYCQKYNSAPFTFGCGTKVEIK
In turn, B7 registered a Kd of 51.8 nM. Compared with the last molecule, the Kd is about 65-fold higher.

B8: MA 10-G2 CC (T1S) (antibody, V domains shown)
VH: EVQLVESGGGLVQPGGSLRLSCAASGFTFSNAWMSWVRQAPGKCLEWVGRILSMHYGGTTDYAAPVKGRFTISRDDSKNTLYLQMNSLKTEDTAVYYCTTPSYSGSYYNYFSVMDVWGQGTTVTVSS
VL: DIQMTQSPSSLSASVGDRVTITCRTSQSISSYLNWFQQKPGKAPKLLIFAASSLQSGVPSRFSGSGSGTDFTLTISSLQPEDFATYYCQQTYSMPFTFGCGTKVDIK
Take B8: the equilibrium dissociation constant (Kd) was found to be 1 nM. Compared with the last molecule, the Kd is about 52-fold lower.

B9: MA 10-H3 CC (M9L) (antibody, V domains shown)
VH: EVQLVESGGGLVQPGGSLRLSCAASGFTFSNAWMSWVRQAPGKCLEWVGRIRSRPYGGTTDYAAPVKGRFTISRDDSKNTLYLQMNSLKTEDTAVYYCTTPSYSGSYYNYFSVMDVWGQGTTVTVSS
VL: DIQMTQSPSSLSASVGDRVTITCRTSQSISSYLNWYQQKPGRAPKLLIFAASSLQGGVPSRFSGSGSGTDFTLTISSLQPEDFATYYCQQTYSSPFTFGCGTKLEIK
Consider B9, for which the Kd stood at 0.7 nM.

As usually defined, the Kd is the concentration at which binding is half-saturated. A lower Kd goes with a tighter complex.

The values above are taken from patent publication US12312412 (dated 2025).
